The target of the data set is MalE (MBP) (UniProt P0AEX9 27-396). Briefly: EMSA; EMSA: 50 mM Tris-HCl pH 7.4, 50 mM KCl, 2 mM MgCl2, 100 ng poly(dI-dC), 0.5 ug BSA, 0.01 pmol probe, 4 C 30 min; DAPA: 10 mM Tris-HCl pH 7.6, 60 mM KCl, 5% glyc. In general terms: A gel shift assay detects complexes by their altered migration in electrophoresis.

B1: VicR box probe (dsDNA)
DNA 1: CTAATATGTAAATGTTGCAAAATTTCTGAA
DNA 2: TTCAGAAATTTTGCAACATTTACATATTAG
In the case of B1, the binding result is listed as “no binding”.

Values taken from paper PMC4888889, “Role of VicRKX and GlnR in pH-Dependent Regulation of the Streptococcus salivarius 57.I Urease Operon”.
